According to patent publication US12723255B2, “Herbicide tolerance genes and methods of use thereof” (priority 2014, dated 2026):

B1: MON-HT9: engineered oxygenase protein, amino acid sequence SEQ ID NO:40 (protein)
chain: MHAALTPLTNKYRFIDVQPLTGVLGAEITGVDLREPLDDSTWNEILDAFHTYQVIYFPAQQITNEQHISFSRRFGPVDPVPLLKSIEGYPEVQMIRREANESGRILGDDWHTDSTFLDAPPAAVVMRAIEVPEYGGDTGFLSMYSAWDTLSDTMKATIEGLNVVHSATRVFGSLYQAQNWRFSNTSVKVMDVDAGDRETVHPLVVSHPVTGRRALYCNQVYCQRIEGMTDAESKCLLQFLYEHATKFDFTCRVRWKKDQVLVWDNLCTMHRAVPDYAGKFRYLTRTTVAGDRPAR
B2: MON-HT3: engineered oxygenase protein, amino acid sequence SEQ ID NO:22 (protein)
chain: MHAALSPLSQRFERIAVQPLTGVLGAEITGVDLREPLDDSTWNEILDAFHTYQVIYFPGQAITNEQHIAFSRRFGPVDPVPLLKSIEGYPEVQMIRREANESGRVIGDDWHTDSTFLDAPPAAVVMYAKEVPPYGGDTLFASMYTAWETLSPTMQATIEGLNVVHSATRVFGSLYQAQNRRFSNTSVKVMDVDAGDRETVHPLVVTHPETGRKGLYVNQVYCQRIEGMSEKESEPLLSFLFAHATKPEFTCRVRWQEGQVLVWDNLCTQHFAVPDYAGKFRYLTRTTVGGVRPAR
B3: MON-HT4: engineered oxygenase protein, amino acid sequence SEQ ID NO:25 (protein)
chain: MHAALTPLTNKYRFIDVQPLTGVLGAEITGVDLREPLDDSTWNEILDAFHTYQVIYFPGQAITNEQHIAFSRRFGPVDPVPLLKSIEGYPEVQMIRREANESGRVIGDDWHTDSTFLDAPPAAVVMYAREVPPYGGDTGFLSMYTAWETLSPTMQATIEGLNVVHSATRVFGSLYQAQNRRYSNTSVKVMDVDAGDRETVHPLVVSHPVTGRRALYCNQVYCQRIEGMTDAESKSLLQFLYEHATKFDFTCRVRWKKDQVLVWDNLCTMHRAVPDYAGKFRYLTRTTVAGDKPSR
B4: MON-HT5: engineered oxygenase protein, amino acid sequence SEQ ID NO:28 (protein)
chain: MHAALTPLTNKYRFIDVQPLTGVLGAEITGVDLREPLDDSTWNEILDAFHTYQVIYFPGQAITNEQHIAFSRRFGPVDPVPLLKSIEGYPEVQMIRREANESGRVIGDDWHTDSTFLDAPPAAVVMRAIEVPEYGGDTGFLSMYSAWETLSPTMQATIEGLNVVHSATKVFGSLYQATNWRFSNTSVKVMDVDAGDRETVHPLVVTHPVTGRRALYCNQVYCQKIQGMTDAESKSLLQFLYEHATKFDFTCRVRWKKDQVLVWDNLCTMHRAVPDYAGKFRYLTRTTVAGDKPSR

system: F1 hybrid maize plants; experiment: efficacy field trial with segregating F1 hybrid plants; format: in vivo; conditions: CTP A; 2,4-D amine 2× at VE-V2 (plus quizalofop-P 0.5×), V4, V8
Method: Ten unique engineered proteins optimized for activity at higher temperatures were selected for maize transformation and analysis in plants. DNA constructs were produced for expressing these engineered proteins with codon usage optimized for monocot expression using methods known to those skilled in the art. Enhancers, promoters, leaders, introns, CTPs, and 3′UTRs were tested in various combinations with the engineered proteins in these DNA constructs. The DNA constructs were used to transform immature maize (LH244) embryos with these vectors using Agrobacterium tumifaciens and standard methods known in the art. Regenerated R0 transgenic plantlets were grown in the green house.
Transgenic R0 maize plants were screened by the application of quizalofop-P (2×) plus 2,4-D (2×) at 7 to 10 days following transplant into plugs (generally corresponding to V3-V4 growth stage). All constructs tested produced plants containing unique events that passed the RO screen. The R0 plants were selfed to generate R1 homozygous seed and the R0 was also used as the male to cross with inbred plants containing maize event MON89034 to generate segregating F1 hybrid seed for efficacy field trials.
An efficacy field trial was conducted with segregating F1 hybrid plants, with 50% hemizygous and 50% null for the transgene. Tolerance to quizalofop-P (2×) plus 2,4-D (2×) was assessed using two herbicide application regimens: (1) quizalofop-P (Assure II) at 0.16 lb ai/acre (2×) plus 0.25% v/v non-ionic surfactant (NIS) applied at VE-V2 growth stage followed by the same at V4 growth stage followed by the same at V8 growth stage and (2) 2,4-D amine at 2 lb ae/acre (2×) plus quizalofop-P at 0.04 lb ai/acre (0.5×) plus 0.25% v/v NIS applied at VE-V2 growth stage followed by 2,4-D amine at 2 lb ae/acre (2×) plus 0.25% v/v NIS applied at V4 growth stage followed by the same at V8 growth stage. The 50% of the plants that were null for transgene were removed by the first quizalofop-P application at VE-V2 growth stage. Plots were visually rated 10-14 days after application for crop injury on a scale of 0 to 100 with “0” being none and “100” being complete crop destruction. […] The percentage injury rating with 2× application of 2,4-D at V8 growth stage ranged from a high of 40% to a low of 0. Similarly, the percentage injury rating with 2× application of quizalofop-P at V8 growth stage ranged from a high of 90% to a low of 0. Variation in injury rating between plants expressing the same protein is likely due to variations in construct design or transgene insertion location.

Going from B1 to B2, the “% Injury from V4 2,4-D” value rises from 20% to 21.7%.

First: B3
Second: B4
The “% Injury from V4 2,4-D” value of the first is lower: 22.3% for the first, 27.2% for the second.

First: B1
Second: B2
The “% Injury from V8 2,4-D” value of the first is higher: 40% for the first, 9.2% for the second.

Compared with B3, B4 is higher in “% Injury from V8 2,4-D” value: 12.3% for the first, 17.4% for the second.

same assay, conditions: CTP A; quizalofop-P 2× at VE-V2, V4, V8

Going from B1 to B2, the “% Injury from V4 Quizalofop” value falls from 5% to 1.6%.

Compared with B3, B4 is higher in “% Injury from V4 Quizalofop” value: 6.1% for the first, 6.8% for the second.

Going from B1 to B2, the “% Injury from V8 Quizalofop” value falls from 5% to 0.5%.

First: B3
Second: B4
The “% Injury from V8 Quizalofop” value of the first is lower: 0% for the first, 1.7% for the second.

system: not given; experiment: not given; format: physicochemical; conditions: buffer
Procedure, shortened: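 Thermal shift assay: purified enzyme in 30 mM Tris pH7.5, 150 mM NaCl, with or without 50 uM Fe2+ and 1.0 mM aKG. Unfolding followed by SYPRO orange fluorescence from 10° C. to 95° C. in 0.5° C. steps; melting temperature (T1/2) taken from the curve.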

Compared with B1, B2 is lower in “T1/2, temperature where 50% of the protein was unfolded, Buffer plus Fe2+ and aKG” value: 60 °C for the first, 48 °C for the second.

Going from B3 to B4, the “T1/2, temperature where 50% of the protein was unfolded, Buffer plus Fe2+ and aKG” value rises from 44 °C to 61 °C.

same assay, conditions: buffer, pH 7.5

First: B1
Second: B2
The “T1/2, temperature where 50% of the protein was unfolded, Buffer” value of the first is higher: 61 °C for the first, 46 °C for the second.

First: B3
Second: B4
The “T1/2, temperature where 50% of the protein was unfolded, Buffer” value of the first is lower: 43 °C for the first, 60 °C for the second.
